Our source for the Kd, koff and kon values is paper PMC5374107, “Structure-Guided Identification of a Family of Dual Receptor-Binding PfEMP1 that Is Associated with Cerebral Malaria” (Cell Host & Microbe, 2017).

Holding throughout (conditions): both partners purified
The target in assay [1] is T1, Recombinant His-tagged EPCR (human, UniProt Q9UNN8 18-238, biotin (biotinylated by BirA)).
T1 construct: endothelial protein C receptor (EPCR); also called endothelial protein C receptor; source: S2 cells, purified and biotinylated (Lau et al., 2015)
T1 sequence: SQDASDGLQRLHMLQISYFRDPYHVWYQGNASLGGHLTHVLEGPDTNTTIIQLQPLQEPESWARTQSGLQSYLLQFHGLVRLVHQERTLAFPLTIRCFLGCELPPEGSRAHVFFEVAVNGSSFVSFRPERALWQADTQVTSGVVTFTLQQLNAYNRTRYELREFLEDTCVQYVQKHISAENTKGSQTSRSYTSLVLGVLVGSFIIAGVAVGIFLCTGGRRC
The assay is described as follows: SPR; Biacore T-200; biotinylated EPCR immobilized to 650 RU on a CAP chip (Biotin Capture Kit); head structures injected, two-fold dilutions 500 nM to 4 nM, 30 µL/min, 240 s association, 720 s dissociation; 10 mM HEPES pH 7.4, 300 mM NaCl, 0.05% Tween-20, 2 mg/ml ssDNA; one-site kinetic model.

Another assay addresses T2, ICAM-1D1D5-Fc (human).
T2 construct: intercellular adhesion molecule 1 (ICAM-1), domains D1 to D5; captured on protein A by its Fc; also called ICAMD1D5; ICAM-1-Fc; source: HEK cells, recombinant (Bengtsson et al., 2013a)
Nature of the assay: SPR; Biacore T-200; ICAM-1D1D5 Fc immobilized to 1,400 RU on a CM5 chip pre-coupled to Protein A; head structures injected, two-fold dilutions 4 nM to 500 nM, 40 µL/min, 240 s association, 600 s dissociation; 10 mM HEPES pH 8.0, 300 mM NaCl, 0.05% Tween-20; one-site kinetic model. Background: Surface plasmon resonance follows binding to a sensor surface in real time, without labels.

Assay [2] deals with T1, Recombinant His-tagged EPCR. Nature of the assay: SPR; Biacore T-200; dual binding: ICAM-1D1D5 Fc immobilized (1,800, 2,100 or 1,500 RU) on Protein A CM5 chip, head structure injected at 250 nM for 240 s, then EPCR injected, two-fold dilutions 250 nM to 16 nM, 30 µL/min, 240 s association, 720 s dissociation; 10 mM HEPES pH 8.0, 300 mM NaCl, 0.05% Tween-20; one-site kinetic model.

B1: PF11_0521 head structure (NTS-DBLα1.7-CIDRα1.4-DBLβ3) (domain or fragment)
chain: MGNAIPATPDPIFINESYKSARNVLENVARLIKAKATKDVKRHRNVLKGNLRNAKFYHPFSKERPYYKSACDLDYRFHSNIWSGDNTYRHPCAGRNRNRFSYEGEAECRISRITGNKTEHGACAPYRRRHLCDYIFHQVNDNYIKTSDDLLGNLLVTAKYEGESIVNSYANSGMFNVCTALARSFADIGDIIRGKDLYLGNGDYKEKVSNNLRAIFNKIYENLNDPKLKKHYQKDAPNYYKLRDDWWNANREDVWKALTCNAPYEAQYFIKPSDKEHSFSSEYCGHYKNGDPLTNLDYVPQFLRWFEEWAEEFCRIKKIKLENVKNACRDEKKRKYCSLNGFDCTQTIWKKKVFGRGNDCTNCSFKCFPYEIWLGNQREAFRKQKEKYAKEIEAYVTNRGIPKSSINNGYYKDFYNKLKEKTYNTVDEFINLLNEGRYCKKQKPEEENIDFIKTGEKGTFYRSDYCQVCPDCGVDCSSGTCIEKKDDINCGKKINYEPPHGVKPIDIIVLYSGNEEGEITKRLSEFCTDSSNNKGKNYEQWKCYYKNGDDNKCKMVKNSGNNITEEKIISFDEFFYVWVRKLLIDSIKWENELNNCIDNTSTHCNKECNKNCECFDKWVKKKEDEWKNVKNVFENKNGTSHNYYNKLNGLFKGFFFEVMDKLNKDETKWNKLIESLRTKIDSSKENIGTGNTQDTIKVLLDHLKETATICKDNNTNEACETSRNRKTNPCAKPHGKKLATVKQIAQYYKRKAYIQLNERGSRSALKGDASQGQYDRGGKADDFKTKLCEINEKHSNARSNSLNPCNGKDNNKVRFNVGTPWQSGEKIATATDVYLPPRRQHFCTSNLEYLINGGHQAILNVKNGKINHSFLGDVLLAAKYQAQHTMKDYKSKNDKEGICRAIRYSFADIGDIIKGTDLWDKDGGEIKTQNHLVTIFDKIKAQLPKDIKGKYTGTKHLELRKDWWEANRDQVWKAMQCGNDNPCSGESDHTPLHDYIPQRLRWMTEWAEWYCKEQSRLYDKLKVCEECMRKGESCTKGSGECATCKEACEEYNKEIKKWEQQWDAISYKYLMLYAKARITAINGGPGYYNTEVQEEDKPVVDFLYNLYLQNGGKKGPPPDTHRVKALIARVKRDAARNRVKRADGSSATRVTATTTITPYSTAAGYIHQEAHIGDCQKQTQFCKNKNGSDVSDTEADPTYAFRDKPHDHDTACKC
As usually defined, the Kd is the constant that tells how readily two partners part at equilibrium. One may read the koff as a measure of how fast the partners let go of each other. What is called kon is the second-order rate constant of association. For the molecule B1, in assay [1], the Kd was found to be 1.18 nM, the dissociation rate constant (koff) stood at 4.5e-05 s⁻¹ and the on-rate constant (kon) stood at 38100 M⁻¹ s⁻¹. For the same molecule, in the assay with ICAM-1D1D5-Fc, binding was characterised by a dissociation constant (Kd) of 2.33 nM, the koff turned out to be 5.41e-05 s⁻¹ and the kon is 23200 M⁻¹ s⁻¹.

B2: ICAM-1D1D5-Fc::PF11_0521 head structure complex (complex)
chain 1: QTSVSPSKVILPRGGSVLVTCSTSCDQPKLLGIETPLPKKELLLPGNNRKVYELSNVQEDSQPMCYSNCPDGQSTAKTFLTVYWTPERVELAPLPSWQPVGKNLTLRCQVEGGAPRANLTVVLLRGEKELKREPAVGEPAEVTTTVLVRRDHHGANFSCRTELDLRPQGLELFENTSAPYQLQTFVLPATPPQLVSPRVLEVDTQGTVVCSLDGLFPVSEAQVHLALGDQRLNPTVTYGNDSFSAKASVSVTAEDEGTQRLTCAVILGNQSQETLQTVTIYSFPAPNVILTKPEVSEGTEVTVKCEAHPRAKVTLNGVPAQPLGPRAQLLLKATPEDNGRSFSCSATLEVAGQLIHKNQTRELRVLYGPRLDERDCPGNWTWPENSQQTPMCQAWGNPLPELKCLKDGTFPLPIGESVTVTRDLEGTYLCRARSTQGEVTRKVTVNVLSPRYE
chain 2: B1 chain
On to B2, for which, in assay [2], the equilibrium dissociation constant (Kd) stood at 11.4 nM, the koff came out at 0.000195 s⁻¹ and the on-rate constant (kon) is 17200 M⁻¹ s⁻¹.
